The text below walks through data of patent publication US6916470.

This assay concerns the target human mpl (myeloproliferative leukemia receptor, TPO receptor) expressed on stably transfected BaF3 cells (human) (UniProt P40238). Nature of the assay: cell-based or functional assay.

Consider “human thrombopoietin (TPO), expressed in COS cells from cDNA cloned from human fetal liver; used as TPO-containing COS supernatant (from UniProt P40225 22-353) (ligand)”, for which the proliferation of mpl-expressing BaF3 cells (activity of the supernatant) came out at 300000 U/ml.
